Read-outs that look alike come from different tables or passages of the source.
Tests used:
cryo-EM structure [1] = target: the molecule itself; test: cryo-EM structure
cryo-EM structure [2] = target: the molecule itself; test: cryo-EM structure; remark: listed apart in the source
[3] = target: T1, LYCHOS(F352A/W678R/N145A)-Flag-NLuc (human, UniProt Q7Z3F1 1-870, F352A | W678R | N145A); test: FRET or BRET
T1 sequence: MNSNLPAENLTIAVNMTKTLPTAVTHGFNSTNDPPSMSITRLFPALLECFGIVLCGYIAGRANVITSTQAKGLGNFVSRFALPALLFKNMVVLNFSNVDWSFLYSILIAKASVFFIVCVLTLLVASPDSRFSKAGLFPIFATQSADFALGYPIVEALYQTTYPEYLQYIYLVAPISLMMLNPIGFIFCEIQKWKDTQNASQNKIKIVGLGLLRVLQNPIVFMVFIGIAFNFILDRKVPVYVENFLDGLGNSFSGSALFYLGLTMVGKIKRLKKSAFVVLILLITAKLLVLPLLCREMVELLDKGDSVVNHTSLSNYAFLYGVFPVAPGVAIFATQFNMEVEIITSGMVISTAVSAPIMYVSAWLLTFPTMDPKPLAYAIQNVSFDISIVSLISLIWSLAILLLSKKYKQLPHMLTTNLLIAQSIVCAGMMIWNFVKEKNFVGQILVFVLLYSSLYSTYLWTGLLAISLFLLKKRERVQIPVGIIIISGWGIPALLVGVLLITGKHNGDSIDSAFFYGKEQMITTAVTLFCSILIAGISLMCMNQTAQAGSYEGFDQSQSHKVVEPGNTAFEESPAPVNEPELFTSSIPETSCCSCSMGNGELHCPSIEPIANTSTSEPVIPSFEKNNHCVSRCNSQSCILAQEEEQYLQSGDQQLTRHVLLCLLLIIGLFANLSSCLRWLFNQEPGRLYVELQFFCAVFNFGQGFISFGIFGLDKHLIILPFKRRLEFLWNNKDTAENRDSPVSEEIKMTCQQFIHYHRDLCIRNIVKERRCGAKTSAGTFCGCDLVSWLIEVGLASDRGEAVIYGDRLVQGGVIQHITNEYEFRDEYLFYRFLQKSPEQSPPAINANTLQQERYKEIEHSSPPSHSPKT

LYCHOS(N145A)-Flag-NLuc = target: T2, LYCHOS(N145A)-Flag-NLuc (human, UniProt Q7Z3F1 1-870, N145A); test: FRET or BRET
T2 sequence: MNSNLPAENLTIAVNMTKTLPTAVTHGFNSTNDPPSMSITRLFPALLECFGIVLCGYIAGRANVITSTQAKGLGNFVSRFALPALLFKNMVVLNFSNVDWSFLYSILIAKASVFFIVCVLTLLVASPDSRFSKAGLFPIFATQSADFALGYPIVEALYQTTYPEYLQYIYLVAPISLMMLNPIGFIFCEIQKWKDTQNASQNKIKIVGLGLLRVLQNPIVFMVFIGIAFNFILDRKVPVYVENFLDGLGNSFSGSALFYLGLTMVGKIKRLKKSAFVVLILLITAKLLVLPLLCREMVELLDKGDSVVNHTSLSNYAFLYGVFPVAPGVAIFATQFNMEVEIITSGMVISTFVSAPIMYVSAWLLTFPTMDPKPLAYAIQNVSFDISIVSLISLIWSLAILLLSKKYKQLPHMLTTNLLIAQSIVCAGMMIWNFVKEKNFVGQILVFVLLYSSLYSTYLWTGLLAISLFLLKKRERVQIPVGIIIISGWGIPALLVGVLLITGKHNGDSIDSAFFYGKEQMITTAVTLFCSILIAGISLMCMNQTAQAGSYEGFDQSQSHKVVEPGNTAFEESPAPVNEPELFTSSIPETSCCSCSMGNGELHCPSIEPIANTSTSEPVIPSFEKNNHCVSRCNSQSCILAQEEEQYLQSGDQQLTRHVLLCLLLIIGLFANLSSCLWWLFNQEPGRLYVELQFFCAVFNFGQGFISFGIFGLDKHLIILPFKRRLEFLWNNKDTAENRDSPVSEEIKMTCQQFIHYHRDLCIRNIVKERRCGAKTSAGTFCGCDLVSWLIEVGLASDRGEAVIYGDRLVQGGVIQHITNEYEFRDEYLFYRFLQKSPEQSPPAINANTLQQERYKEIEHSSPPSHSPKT

B1: LYCHOS (GPR155), wild type, C-terminal Flag tag, expressed in Sf9 cells (natural protein, human)
chain: MNSNLPAENLTIAVNMTKTLPTAVTHGFNSTNDPPSMSITRLFPALLECFGIVLCGYIAGRANVITSTQAKGLGNFVSRFALPALLFKNMVVLNFSNVDWSFLYSILIAKASVFFIVCVLTLLVASPDSRFSKAGLFPIFATQSNDFALGYPIVEALYQTTYPEYLQYIYLVAPISLMMLNPIGFIFCEIQKWKDTQNASQNKIKIVGLGLLRVLQNPIVFMVFIGIAFNFILDRKVPVYVENFLDGLGNSFSGSALFYLGLTMVGKIKRLKKSAFVVLILLITAKLLVLPLLCREMVELLDKGDSVVNHTSLSNYAFLYGVFPVAPGVAIFATQFNMEVEIITSGMVISTFVSAPIMYVSAWLLTFPTMDPKPLAYAIQNVSFDISIVSLISLIWSLAILLLSKKYKQLPHMLTTNLLIAQSIVCAGMMIWNFVKEKNFVGQILVFVLLYSSLYSTYLWTGLLAISLFLLKKRERVQIPVGIIIISGWGIPALLVGVLLITGKHNGDSIDSAFFYGKEQMITTAVTLFCSILIAGISLMCMNQTAQAGSYEGFDQSQSHKVVEPGNTAFEESPAPVNEPELFTSSIPETSCCSCSMGNGELHCPSIEPIANTSTSEPVIPSFEKNNHCVSRCNSQSCILAQEEEQYLQSGDQQLTRHVLLCLLLIIGLFANLSSCLWWLFNQEPGRLYVELQFFCAVFNFGQGFISFGIFGLDKHLIILPFKRRLEFLWNNKDTAENRDSPVSEEIKMTCQQFIHYHRDLCIRNIVKERRCGAKTSAGTFCGCDLVSWLIEVGLASDRGEAVIYGDRLVQGGVIQHITNEYEFRDEYLFYRFLQKSPEQSPPAINANTLQQERYKEIEHSSPPSHSPKT
Question: B1 was tested. Which “stoichiometry N” value (cryo-EM structure [1]) did it give?
Answer: 2

B2: LYCHOS (GPR155), wild type, C-terminal Flag tag, expressed in Expi293F cells (natural protein, human)
chain: MNSNLPAENLTIAVNMTKTLPTAVTHGFNSTNDPPSMSITRLFPALLECFGIVLCGYIAGRANVITSTQAKGLGNFVSRFALPALLFKNMVVLNFSNVDWSFLYSILIAKASVFFIVCVLTLLVASPDSRFSKAGLFPIFATQSNDFALGYPIVEALYQTTYPEYLQYIYLVAPISLMMLNPIGFIFCEIQKWKDTQNASQNKIKIVGLGLLRVLQNPIVFMVFIGIAFNFILDRKVPVYVENFLDGLGNSFSGSALFYLGLTMVGKIKRLKKSAFVVLILLITAKLLVLPLLCREMVELLDKGDSVVNHTSLSNYAFLYGVFPVAPGVAIFATQFNMEVEIITSGMVISTFVSAPIMYVSAWLLTFPTMDPKPLAYAIQNVSFDISIVSLISLIWSLAILLLSKKYKQLPHMLTTNLLIAQSIVCAGMMIWNFVKEKNFVGQILVFVLLYSSLYSTYLWTGLLAISLFLLKKRERVQIPVGIIIISGWGIPALLVGVLLITGKHNGDSIDSAFFYGKEQMITTAVTLFCSILIAGISLMCMNQTAQAGSYEGFDQSQSHKVVEPGNTAFEESPAPVNEPELFTSSIPETSCCSCSMGNGELHCPSIEPIANTSTSEPVIPSFEKNNHCVSRCNSQSCILAQEEEQYLQSGDQQLTRHVLLCLLLIIGLFANLSSCLWWLFNQEPGRLYVELQFFCAVFNFGQGFISFGIFGLDKHLIILPFKRRLEFLWNNKDTAENRDSPVSEEIKMTCQQFIHYHRDLCIRNIVKERRCGAKTSAGTFCGCDLVSWLIEVGLASDRGEAVIYGDRLVQGGVIQHITNEYEFRDEYLFYRFLQKSPEQSPPAINANTLQQERYKEIEHSSPPSHSPKT
Question: For B2, which “stoichiometry N” value (cryo-EM structure [2]) is on record?
Answer: 2

B3: HA-cpmCitrine-NPRL2 (natural protein, UniProt Q8WTW4 1-380, looked up)
chain: MGSGCRIECIFFSEFHPTLGPKITYQVPEDFISRELFDTVQVYIITKPELQNKLITVTAMEKKLIGCPVCIEHKKYSRNALLFNLGFVCDAQAKTCALEPIVKKLAGYLTTLELESSFVSMEESKQKLVPIMTILLEELNASGRCTLPIDESNTIHLKVIEQRPDPPVAQEYDVPVFTKDKEDFFNSQWDLTTQQILPYIDGFRHIQKISAEADVELNLVRIAIQNLLYYGVVTLVSILQYSNVYCPTPKVQDLVDDKSLQEACLSYVTKQGHKRASLRDVFQLYCSLSPGTTVRDLIGRHPQQLQHVDERKLIQFGLMKNLIRRLQKYPVRVTREEQSHPARLYTGCHSYDEICCKTGMSYHELDERLENDPNIIICWK
Question: What does the source list for B3?
Answer: BRET50 [3]: 0.03 ± 0.01; BRET50 (LYCHOS(N145A)-Flag-NLuc): 0.23 ± 0.06

— article PMC11525196 (Nature, 2024)
